Source: paper PMC12109978

Columns and labels:
[1] = target: human tropomodulin 1 (Tmod1) (human) (UniProt P28289); assay: SEC; Superose 6 Increase 10/300 GL, 50 mM HEPES-Na pH 7.3, 150 mM NaCl, 1 mM DTT, 0.5 mL/min, 280 nm; 30 µM Tpm and Tmod1, or 26 µM Tpm and 13 µM Tmod4; single proteins and mixtures
[2] = target: human tropomodulin 4 (Tmod4) (human) (UniProt Q9NZQ9); assay: pull-down; His-tagged Tmod4 (6 µM) incubated 20 min with 3 to 24 µM Tpm in 30 mM HEPES-Na, 200 mM NaCl, pH 7.3, then captured on IMAC Ni-charged resin, eluted with 500 mM imidazole; SDS-PAGE, densitometry
[3] = target: human tropomyosin Tpm1.1 with Ala-Ser N-terminal extension (human)

UniProt Q9NZQ9, sequence (Q9NZQ9 whole entry): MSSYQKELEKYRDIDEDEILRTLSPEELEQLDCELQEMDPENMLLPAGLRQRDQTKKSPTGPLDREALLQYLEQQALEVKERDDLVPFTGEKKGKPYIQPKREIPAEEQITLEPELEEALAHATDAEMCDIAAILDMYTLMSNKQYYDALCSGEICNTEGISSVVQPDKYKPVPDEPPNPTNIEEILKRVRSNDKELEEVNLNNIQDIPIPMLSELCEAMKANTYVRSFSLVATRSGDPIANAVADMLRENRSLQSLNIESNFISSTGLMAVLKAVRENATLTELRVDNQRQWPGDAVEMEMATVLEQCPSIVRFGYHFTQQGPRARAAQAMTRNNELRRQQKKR

| stoichiometry N (Tpm1.1 per Tmod1) [1] | Tpm/Tmod ratio at which saturation is reached (Tpm/Tmod ratio) [2] | decrease of the sliding velocity of thin filaments containing Tpm1.1 over sheep ventricular myosin at pCa 5.2 by 500 nM Tmod1 [3] | Molecule |
| --- | --- | --- | --- |
| 2 | 3 | – | human tropomyosin Tpm1.1 with Ala-Ser N-terminal extension (natural protein) |
| – | 2.5 | – | human tropomyosin Tpm1.2 with Ala-Ser N-terminal extension (natural protein) |
| – | – | 30% | human tropomodulin 1 (Tmod1) (natural protein) MSYRRELEKYRDLDEDEILGALTEEELRTLENELDELDPDNALLPAGLRQKDQTTKAPTGPFKREELLDHLEKQAKEFKDREDLVPYTGEKRGKVWVPKQKPLDPVLESVTLEPELEEALANASDAELCDIAAILGMHTLMSNQQYYQALSSSSIMNKEGLNSVIKPTQYKPVPDEEPNSTDVEETLERIKNNDPKLEEVNLNNIRNIPIPTLKAYAEALKENSYVKKFSIVGTRSNDPVAYALAEMLKENKVLKTLNVESNFISGAGILRLVEALPYNTSLVEMKIDNQSQPLGNKVEMEIVSMLEKNATLLKFGYHFTQQGPRLRASNAMMNNNDLVRKRRLADLTGPIIPKCRSGV |
